± gives the uncertainty stated by the source.
Test: protein stability index of a GFP-peptide fusion (yeast GPS) (PSI 1-4); higher = more stable; sorted into four equal gates, so the index is relative within each strain
Outline: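 The protein stability index of a peptide was calculated by multiplying its read frequency in each gate by that gate's number and adding the products. The peptides were tiled 17-residue stretches of yeast proteins, fused downstream of GFP on a Cherry-expressing plasmid and carried in yeast as a pooled library. Mid-log cultures in leucine-free medium were sorted into four equal gates by GFP/Cherry ratio, and each gate's plasmids were PCR-amplified and Illumina-sequenced.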

Sequence	protein stability index (doa10∆)	protein stability index (pdr5∆)	protein stability index (san1∆)	protein stability index (ubr1∆)
IEDPNLSSNITFDGKPT [YMR153W/NUP53]	3.02 ± 0.069	3.06 ± 0.056	3.12 ± 0.043	3.17 ± 0.05
TTLHGPGFQLPNRITLT [SRB8]	2.9 ± 0.099	2.84 ± 0.1	2.74 ± 0.068	2.89 ± 0.061
DNGESAFRTLRLARSEK [RPL13A]	3.39 ± 0.24	3.51 ± 0.15		3.31 ± 0.084
EARAEAINLMGVKNNLL [RPO31]	3.35 ± 0.22	1.96 ± 0.15	1.84 ± 0.23	1.66 ± 0.24
LALGSHNKLIQFGNACI [SSN2]	2.13 ± 0.13	1.6 ± 0.087	2.2 ± 0.13	1.28 ± 0.089
QCIVYPNCLFILKLLNG [SOH1]	1.3 ± 0.062	1.51 ± 0.061	1.27 ± 0.14	1.29 ± 0.047
PDDMVEINSVGNPGLPQ [ITC1]	2.85 ± 0.086	3.26 ± 0.04	3.05 ± 0.072	3.09 ± 0.06
NVGTNTYRLGEWSKISV [POP1]	1.97 ± 0.25	2.34 ± 0.12	2.69 ± 0.097	3.17 ± 0.12
LLRSVLVLLELVSSGDR [YML103C/NUP188]	1.84 ± 0.23	2.03 ± 0.12		2.28 ± 0.15
VEYNLFTNRSTMMANFE [BRN1]	2.11 ± 0.18	2.4 ± 0.18	2.37 ± 0.095	2.65 ± 0.053
EDEDDDDDDDEDEEEEE [QCR6]	3.06 ± 0.049	3.5 ± 0.12	3.4 ± 0.041	3.84 ± 0.17
SGKETASAPLCSPKLPV [DLS1]	2.89 ± 0.049	3.13 ± 0.05	3.15 ± 0.039	3.14 ± 0.034
IFKDLVTVFLFMLILAL [COB]	1.45 ± 0.04	1.19 ± 0.033	1.12 ± 0.067	1.17 ± 0.025
FKLPKKFPPPTPLLENI [BRR2]	2.44 ± 0.062	2.72 ± 0.067	2.31 ± 0.061	2.71 ± 0.048
MINRLLLCALDRKDQDD [RPB2]	1.86 ± 0.16	3.11 ± 0.1	2.11 ± 0.17	2.97 ± 0.067
NVNLDDYPDDSGWTPFH [NAS6]	3 ± 0.091	2.91 ± 0.069	2.92 ± 0.061	2.96 ± 0.066
GRETILSNFNADINLEE [SIR3]	3.14 ± 0.094	3.17 ± 0.11	2.85 ± 0.067	2.99 ± 0.07
LLNEWSHNVDELLEHIE [RPN5]	2.57 ± 0.12	1.9 ± 0.09	2.13 ± 0.19	1.58 ± 0.061
PATTSQMAKDVTTFLNW [CYT1]	3.16 ± 0.12	3.02 ± 0.13	2.84 ± 0.15	3.31 ± 0.27
IECFKPGDIVRAQVLSL [CSL4]	2.25 ± 0.15	2.04 ± 0.17	2.04 ± 0.2	2.39 ± 0.16
IRGSDQAIPKFQMNCYA [RPN2]	1.27 ± 0.085	1.62 ± 0.066	1.55 ± 0.13	1.47 ± 0.11
IDYLQRNDKTLELMDSK [POP1]	3.06 ± 0.096	3.19 ± 0.14	2.64 ± 0.25	3.24 ± 0.14
MQGKITKVLNMKPSEIL [SMC2]	2.48 ± 0.25	2.88 ± 0.18		
LDTQLNDLRVSLNEKNA [SMC1]	3.03 ± 0.11	3.13 ± 0.082	3.41 ± 0.064	3.14 ± 0.09
MALKFVSIKFTNAAFPF [ECM29]	2.09 ± 0.058	1.98 ± 0.058	1.76 ± 0.078	1.82 ± 0.071
EILILINDPTNKEYTLV [SIN4]	1.77 ± 0.072	2.05 ± 0.067	2.06 ± 0.1	2.23 ± 0.14
